Measured values reported in PMC9515186.

Target: transferrin receptor 1 (mouse (endogenous in 4T1)) (UniProt Q62351)
Sequence of UniProt Q62351 (Q62351 whole entry): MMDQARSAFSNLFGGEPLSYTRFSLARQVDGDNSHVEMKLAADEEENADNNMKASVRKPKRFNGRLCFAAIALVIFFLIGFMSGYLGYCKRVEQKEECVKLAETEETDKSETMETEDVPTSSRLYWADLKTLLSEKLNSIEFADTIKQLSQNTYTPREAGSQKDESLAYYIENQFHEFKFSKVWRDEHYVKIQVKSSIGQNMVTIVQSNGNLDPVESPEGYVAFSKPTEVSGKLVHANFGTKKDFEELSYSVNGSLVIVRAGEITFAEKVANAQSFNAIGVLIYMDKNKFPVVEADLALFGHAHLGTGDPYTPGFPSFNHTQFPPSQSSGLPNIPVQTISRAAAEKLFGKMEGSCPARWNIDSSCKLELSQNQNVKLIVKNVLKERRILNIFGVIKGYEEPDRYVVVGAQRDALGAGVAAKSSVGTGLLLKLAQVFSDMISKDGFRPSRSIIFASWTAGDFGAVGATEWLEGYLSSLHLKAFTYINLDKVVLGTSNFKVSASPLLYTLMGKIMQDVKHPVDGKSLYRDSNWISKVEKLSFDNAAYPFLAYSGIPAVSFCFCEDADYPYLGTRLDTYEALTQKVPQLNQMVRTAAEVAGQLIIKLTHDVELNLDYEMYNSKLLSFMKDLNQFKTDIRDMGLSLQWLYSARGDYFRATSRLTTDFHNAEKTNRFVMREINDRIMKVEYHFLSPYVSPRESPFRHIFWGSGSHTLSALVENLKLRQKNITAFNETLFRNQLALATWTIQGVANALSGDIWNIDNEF

Q: With “ferritin (FITC-labelled, β-lapachone-loaded ferritin units, Ft-FITC@Lap) (from UniProt Q8MIP0 1-182; P02791 1-175) (natural protein)” as the substance, how does the decrease in FITC fluorescence accumulation (uptake, flow cytometry) in BSA-Man-Ft-FITC@Lap-treated 4T1 cells under pH 6.5 after pre-treatment with TfR1 antibody read?
A: 67%

Q: What about the mean fluorescence intensity of FITC in 4T1 cells (CLSM) treated with BSA-Man@Mn2+-Ft-FITC@Lap, pH 6.5 group against pH 7.4 group of the same substance?
A: 3 fold
